# Test results taken from patent EP4814014A1, “BINDING MOLECULE AND ANTIBODY-DRUG CONJUGATE AND USE THEREOF” (priority 2023, dated 2025).
# B1: V-1 (5B10-9A2-7A12) (bispecific antibody)
# chain: AVQLVDSGGGLVQPGGSLRLDCSASGTIIGTYTMAWYRQAPGKQREMVAIITPGGGSHHADSVKGRFTISRDNGKSTVYLQMSSLKFEDTAVYYCNAKARWGTTEYWGQGTQVTVSSGGGGSQSQLAESGGGLVQSGGSLGLSCVASGFTISRSIMSWYRQPPGKERDWVASIGSAGNTNYVDSVKGRFTISRDVAKNTVYLQMNSLKPEDTAVYYCKTTLAVSFSEYWGQGTQVTVSSGGGGSGGGGSEVQLVESGGGLVQAGGSLRLSCVASGNIFSSNHMGWFRQAPGKQREFIAYITTREITNYADSVKGRFTISRDNTKNTVYLQMNVLKPEDTAVYYCIADQSREIRRSWGQGTQVTVSS
# notes: Single-chain trispecific anti-EGFR/cMet antibody
# B2: zn5B10.m18 (VHH, not shown: small tags and cut ends)
# VHH: EVQLVESGGGLVQPGGSLRLSCSASGTIIGTYTMAWYRQAPGKQREMVAIITPGGGSHHADSVKGRFTISRDNSKSTVYLQMSSLRAEDTAVYYCNAKARWGTTEYWGQGTLVTVSS
# notes: Humanized anti-EGFR VHH-His
# B3: zn5B10.m17 (VHH, not shown: small tags and cut ends)
# VHH: EVQLVESGGGLVQPGGSLRLSCAASGTIIGTYTMAWYRQAPGKQREMVAIITPGGGSHHADSVKGRFTISRDNSKNTVYLQMNSLRAEDTAVYYCNAKARWGTTEYWGQGTMVTVSS
# notes: Humanized anti-EGFR VHH-His
# B4: zn5B10.m20 (VHH, not shown: small tags and cut ends)
# VHH: EVQLVESGGGLVQPGGSLRLSCSASGTIIGTYTMAWYRQAPGKQREMVAIITPGGGSHHADSVKGRFTISRDNSKNTLYLQMSSLRAEDTAVYYCNAKARWGTTEYWGQGTLVTVSS
# notes: Humanized anti-EGFR VHH-His; also called hu5B10
# B5: zn5B10.m22 (VHH, not shown: small tags and cut ends)
# VHH: EVQLVESGGGLVQPGGSLRLSCSASGTIIGTYTMAWYRQAPGKQREMVAIITPGGGSHHADSVKGRFTISRDNSKNTLYLQMSSLRFEDTAVYYCNAKARWGTTEYWGQGTLVTVSS
# notes: Humanized anti-EGFR VHH-His
# B6: zn5B10.m23 (VHH, not shown: small tags and cut ends)
# VHH: EVQLVESGGGLVQPGGSLRLDCSASGTIIGTYTMAWYRQAPGKQREMVAIITPGGGSHHADSVKGRFTISRDNSKSTVYLQMSSLRFEDTAVYYCNAKARWGTTEYWGQGTLVTVSS
# notes: Humanized anti-EGFR VHH-His
# B7: zn5B10.m21 (VHH, not shown: small tags and cut ends)
# VHH: EVQLVESGGGLVQPGGSLRLSCSASGTIIGTYTMAWYRQAPGKQREMVAIITPGGGSHHADSVKGRFTISRDNGKNTLYLQMSSLRAEDTAVYYCNAKARWGTTEYWGQGTLVTVSS
# notes: Humanized anti-EGFR VHH-His
# B8: zn5B10.m16 (VHH, not shown: small tags and cut ends)
# VHH: EVQLVESGGGLVQPGGSLRLSCAASGTIIGTYTMAWYRQAPGKQREMVAIITPGGGSHHADSVKGRFTISRDNSKNTLYLQMNSLRAEDTAVYYCNAKARWGTTEYWGQGTMVTVSS
# notes: Humanized anti-EGFR VHH-His
# B9: zn10A1.m6 (VHH, not shown: small tags and cut ends)
# VHH: QVQLVESGGGLVQPGGSLRLSCAASGRTGSLHAMGWFRQAPGKERERVATLNLSDGSAVTADSVKGRFTISTDNSKNSVYLQMNSLRAEDTAVYYCTASRSPSGIRYYKPDYWGQGTLVTVSS
# B10: pn10A1.m2 (VHH, not shown: small tags and cut ends)
# VHH: QVQLVESGGGLVQAGGSLRLSCAASGRTGSLHAMGWFRQAPGKERERVATLNLADGSAVTADSVKGRFTISTDNTKNSVYLQMNSLKPEDTAVYYCTASRSPSGIRYYKPDYWGQGTQVTVSS
# B11: pn10A1.m5 (VHH, not shown: small tags and cut ends)
# VHH: QVQLVESGGGLVQAGGSLRLSCAASGRTGSLHAMGWFRQAPGKERERVATLNLSDVSAVTADSVKGRFTISTDNTKNSVYLQMNSLKPEDTAVYYCTASRSPSGIRYYKPDYWGQGTQVTVSS
# B12: pn10A1.m4 (VHH, not shown: small tags and cut ends)
# VHH: QVQLVESGGGLVQAGGSLRLSCAASGRTGSLHAMGWFRQAPGKERERVATLNLSEGSAVTADSVKGRFTISTDNTKNSVYLQMNSLKPEDTAVYYCTASRSPSGIRYYKPDYWGQGTQVTVSS
# B13: pn10A1.m6 (VHH, not shown: small tags and cut ends)
# VHH: QVQLVESGGGLVQAGGSLRLSCAASGRTGSLHAMGWFRQAPGKERERVATLNLSDASAVTADSVKGRFTISTDNTKNSVYLQMNSLKPEDTAVYYCTASRSPSGIRYYKPDYWGQGTQVTVSS
# B14: pn10A1.m3 (VHH, not shown: small tags and cut ends)
# VHH: QVQLVESGGGLVQAGGSLRLSCAASGRTGSLHAMGWFRQAPGKERERVATLQLTDGSAVTADSVKGRFTISTDNTKNSVYLQMNSLKPEDTAVYYCTASRSPSGIRYYKPDYWGQGTQVTVSS
# B15: pn10A1.m1 (VHH, not shown: small tags and cut ends)
# VHH: QVQLVESGGGLVQAGGSLRLSCAASGRTGSLHAMGWFRQAPGKERERVATLQLSDGSAVTADSVKGRFTISTDNTKNSVYLQMNSLKPEDTAVYYCTASRSPSGIRYYKPDYWGQGTQVTVSS
# B16: zn10A1.m5 (VHH, not shown: small tags and cut ends)
# VHH: QVQLVQSGPEVKKPGTSVKVSCKASGRTGSLHAMGWFRQARGQERERVATLNLSDGSAVTADSVKGRFTITTDNSKNSVYMELSSLRSEDTAVYYCTASRSPSGIRYYKPDYWGQGTMVTVSS
# B17: V-n9B8 anti-EGFR VHH-His (VHH, not shown: small tags and cut ends)
# VHH: QVQLVESGGGLVQPGGSLRLSCAASGLTFSYYAMAWFRQAPGKEREFVAAINWNGGNTYNTDSVKGRFTISRDNAKNTVYLQMNSLKPEDTAVYYCAVRYNSASYLVARSSDYNYWGQGTLVTVSS
# notes: Monovalent parent VHH
# B18: zn9B8.m4 (VHH, not shown: small tags and cut ends)
# VHH: EVQLLESGGGLVQPGGSLRLSCAASGLTFSYYAMAWFRQAPGKEREFVAAINWNGGNTYNTDSVKGRFTISRDNSKNTVYLQMNSLRSEDTAVYYCAVRYNSASYLVARSSDYNYWGQGTLVTVSS
# notes: Humanized anti-EGFR VHH-His
# B19: V-3 (5B10-7A12-9A2) (bispecific antibody)
# chain: AVQLVDSGGGLVQPGGSLRLDCSASGTIIGTYTMAWYRQAPGKQREMVAIITPGGGSHHADSVKGRFTISRDNGKSTVYLQMSSLKFEDTAVYYCNAKARWGTTEYWGQGTQVTVSSGGGGSEVQLVESGGGLVQAGGSLRLSCVASGNIFSSNHMGWFRQAPGKQREFIAYITTREITNYADSVKGRFTISRDNTKNTVYLQMNVLKPEDTAVYYCIADQSREIRRSWGQGTQVTVSSGGGGSGGGGSQSQLAESGGGLVQSGGSLGLSCVASGFTISRSIMSWYRQPPGKERDWVASIGSAGNTNYVDSVKGRFTISRDVAKNTVYLQMNSLKPEDTAVYYCKTTLAVSFSEYWGQGTQVTVSS
# notes: as for B1
# Columns and labels:
# [1] = biological target: T1, human EGFR-his (ECD, Met1-Ser645) (human, UniProt P00533 25-645); test: SPR, antigen amine-coupled on GLM chip, antibody injected, 1:1 model
# T1 construct: range 1-645; Bought; range as printed includes Met1
# [2] = biological target: T2, cynomolgus monkey EGFR-his (ECD, Met1-Ser645) (cynomolgus monkey, UniProt A0A2K5WK39 1-645); test: as above
# T2 construct: range 1-645; Bought; range as printed includes Met1
# [3] = biological target: T3, cynomolgus monkey cMet-his (ECD, Met1-Thr932) (cynomolgus monkey, UniProt A0A2K5UM36 25-932); test: as above
# T3 construct: Bought; range as printed includes Met1
# T3 sequence (A0A2K5UM36 entry or part of it limits assumed, form in doubt): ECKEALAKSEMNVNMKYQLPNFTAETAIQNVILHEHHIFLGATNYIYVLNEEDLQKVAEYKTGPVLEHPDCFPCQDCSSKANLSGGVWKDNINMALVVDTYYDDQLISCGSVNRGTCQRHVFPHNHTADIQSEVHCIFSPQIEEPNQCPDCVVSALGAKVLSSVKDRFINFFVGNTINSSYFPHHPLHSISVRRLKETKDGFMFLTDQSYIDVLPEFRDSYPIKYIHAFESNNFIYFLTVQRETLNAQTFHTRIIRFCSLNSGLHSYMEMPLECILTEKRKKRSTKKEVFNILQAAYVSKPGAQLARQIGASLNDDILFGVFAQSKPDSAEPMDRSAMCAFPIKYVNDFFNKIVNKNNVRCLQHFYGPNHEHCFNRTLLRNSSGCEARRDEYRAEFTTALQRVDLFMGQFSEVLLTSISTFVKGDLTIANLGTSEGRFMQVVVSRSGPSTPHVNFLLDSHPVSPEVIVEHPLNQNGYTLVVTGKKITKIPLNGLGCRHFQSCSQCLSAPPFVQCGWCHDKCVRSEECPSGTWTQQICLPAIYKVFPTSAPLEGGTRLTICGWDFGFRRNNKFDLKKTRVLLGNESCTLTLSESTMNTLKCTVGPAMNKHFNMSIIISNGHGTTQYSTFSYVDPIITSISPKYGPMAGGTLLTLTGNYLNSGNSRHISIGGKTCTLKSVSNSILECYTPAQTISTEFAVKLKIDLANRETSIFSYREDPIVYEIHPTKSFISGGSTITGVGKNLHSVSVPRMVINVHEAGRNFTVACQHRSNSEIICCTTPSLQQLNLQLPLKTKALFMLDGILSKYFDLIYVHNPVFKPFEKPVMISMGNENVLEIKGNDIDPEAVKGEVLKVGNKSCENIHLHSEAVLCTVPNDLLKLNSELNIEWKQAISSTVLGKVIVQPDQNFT
# [4] = biological target: T4, human cMet-his (ECD, Met1-Thr932) (human, UniProt P08581 25-932); test: as above
# T4 construct: Bought; range as printed includes Met1
# T4 sequence (P08581 25-932): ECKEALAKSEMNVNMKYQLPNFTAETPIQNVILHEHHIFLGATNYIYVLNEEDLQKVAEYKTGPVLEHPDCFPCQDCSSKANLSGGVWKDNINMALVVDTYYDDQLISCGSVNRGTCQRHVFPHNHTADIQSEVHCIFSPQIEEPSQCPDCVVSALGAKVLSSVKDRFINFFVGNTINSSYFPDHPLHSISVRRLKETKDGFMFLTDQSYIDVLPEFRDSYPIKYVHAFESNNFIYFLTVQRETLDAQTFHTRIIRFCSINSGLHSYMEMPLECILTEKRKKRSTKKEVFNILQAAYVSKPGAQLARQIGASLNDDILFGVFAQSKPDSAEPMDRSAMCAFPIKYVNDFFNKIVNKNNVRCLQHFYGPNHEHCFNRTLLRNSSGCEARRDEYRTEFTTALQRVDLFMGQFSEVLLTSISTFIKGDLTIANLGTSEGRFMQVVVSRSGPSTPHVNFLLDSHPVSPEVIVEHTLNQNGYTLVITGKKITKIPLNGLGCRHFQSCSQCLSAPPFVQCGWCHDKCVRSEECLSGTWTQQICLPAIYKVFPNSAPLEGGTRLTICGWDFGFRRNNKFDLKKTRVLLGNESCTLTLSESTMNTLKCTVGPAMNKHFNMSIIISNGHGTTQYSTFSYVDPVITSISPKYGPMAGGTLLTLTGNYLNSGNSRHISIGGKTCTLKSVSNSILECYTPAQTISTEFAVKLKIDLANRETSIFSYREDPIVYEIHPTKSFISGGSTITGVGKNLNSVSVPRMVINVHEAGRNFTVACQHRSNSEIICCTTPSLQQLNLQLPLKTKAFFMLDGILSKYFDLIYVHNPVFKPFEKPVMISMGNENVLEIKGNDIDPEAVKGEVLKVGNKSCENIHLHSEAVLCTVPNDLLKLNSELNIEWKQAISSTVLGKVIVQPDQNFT
# human EGFR on cells = biological target: T5, human EGFR on cells (human, UniProt P00533 25-1210); test: FACS, VHH-His on MDA-MB-468 cells
# T5 construct: whole, on cells; the cell line is named under assay; also called CHO-S-EGFR; CHOK1-huEGFR
EC50 (human EGFR on cells) [nM],Maximum MFI value (human EGFR on cells) [MFI],other results,Binder
,,Kd [1]: 31.7 nM; koff [1]: 0.00354 s⁻¹; kon [1]: 112000 M⁻¹ s⁻¹; Kd [2]: 27.8 nM; koff [2]: 0.00206 s⁻¹; kon [2]: 74100 M⁻¹ s⁻¹; Kd [3]: 6.43 nM; koff [3]: 0.000855 s⁻¹; kon [3]: 133000 M⁻¹ s⁻¹; Kd [4]: 9.81 nM; koff [4]: 0.00132 s⁻¹; kon [4]: 135000 M⁻¹ s⁻¹,B1
1.3,71100,,B2
23.2,93600,,B3
0.219,59200,,B4
1.15,86900,,B5
1.94,74200,,B6
0.429,58700,,B7
3.13,76800,,B8
,9680,,B9
,3770,,B10
,27400,,B11
,5260,,B12
,5790,,B13
,5480,,B14
,10300,,B15
,3480,,B16
2.04,94600,,B17
1.43,57100,,B18
,,Kd [1]: 25.1 nM; koff [1]: 0.003 s⁻¹; kon [1]: 119000 M⁻¹ s⁻¹; Kd [2]: 21.8 nM; koff [2]: 0.00246 s⁻¹; kon [2]: 112000 M⁻¹ s⁻¹; Kd [3]: 5.99 nM; koff [3]: 0.00106 s⁻¹; kon [3]: 176000 M⁻¹ s⁻¹; Kd [4]: 8.61 nM; koff [4]: 0.00158 s⁻¹; kon [4]: 183000 M⁻¹ s⁻¹,B19
